# B1: CNTO 95 (antibody, V domains shown)
# VH: QVQLVESGGGVVQPGRSRRLSCAASGFTFSRYTMHWVRQAPGKGLEWVAVISFDGSNKYYVDSVKGRFTISRDNSENTLYLQVNILRAEDTAVYYCAREARGSYAFDIWGQGTMVTVSS
# VL: EIVLTQSPATLSLSPGERATLSCRASQSVSSYLAWYQQKPGQAPRLLIYDASNRATGIPARFSGSGSGTDFTLTISSLEPEDFAVYYCQQRSNWPPFTFGPGTKVDIK
# notes: Fully human IgG1 kappa from a transgenic mouse hybridoma; also called GenO95; C371A
# What was measured:
# [1] = target: T1, human αVβ5 integrin, purified (human, UniProt P06756 31-1048; P18084 24-799); assay: comparison of the KD values on integrin coated plates
# T1 construct: Bought from Chemicon (Triton or octyl formulation); also called alphaVbeta5; aVb5
# T1 sequence (P06756 31-1048, form in doubt, chain 1 of 2): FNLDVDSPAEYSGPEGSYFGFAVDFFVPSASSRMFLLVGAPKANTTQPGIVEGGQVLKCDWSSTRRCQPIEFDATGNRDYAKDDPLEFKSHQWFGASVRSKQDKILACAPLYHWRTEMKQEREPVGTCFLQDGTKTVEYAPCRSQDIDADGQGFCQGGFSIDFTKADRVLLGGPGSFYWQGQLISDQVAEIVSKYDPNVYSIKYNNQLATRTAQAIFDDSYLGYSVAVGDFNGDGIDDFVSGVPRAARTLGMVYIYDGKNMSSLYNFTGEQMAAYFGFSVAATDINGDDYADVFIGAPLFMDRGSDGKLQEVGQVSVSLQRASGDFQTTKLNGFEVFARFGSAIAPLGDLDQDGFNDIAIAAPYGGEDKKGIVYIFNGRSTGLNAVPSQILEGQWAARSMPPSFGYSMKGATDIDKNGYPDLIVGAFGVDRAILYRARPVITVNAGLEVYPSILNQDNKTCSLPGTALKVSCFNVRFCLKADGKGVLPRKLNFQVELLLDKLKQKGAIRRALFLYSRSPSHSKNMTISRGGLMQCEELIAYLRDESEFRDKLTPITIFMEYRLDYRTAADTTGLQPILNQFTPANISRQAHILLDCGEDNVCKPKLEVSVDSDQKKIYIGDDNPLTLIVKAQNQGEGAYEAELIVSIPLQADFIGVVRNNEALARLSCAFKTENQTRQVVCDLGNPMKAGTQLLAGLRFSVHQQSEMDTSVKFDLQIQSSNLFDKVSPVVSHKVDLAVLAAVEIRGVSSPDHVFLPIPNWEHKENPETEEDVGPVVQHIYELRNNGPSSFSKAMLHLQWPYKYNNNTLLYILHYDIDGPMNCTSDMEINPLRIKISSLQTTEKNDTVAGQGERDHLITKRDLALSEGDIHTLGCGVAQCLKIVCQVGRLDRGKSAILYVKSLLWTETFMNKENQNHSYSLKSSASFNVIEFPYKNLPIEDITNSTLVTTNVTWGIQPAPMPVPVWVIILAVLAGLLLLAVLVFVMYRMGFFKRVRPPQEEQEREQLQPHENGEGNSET
# T1 sequence (P18084 24-799, form in doubt, chain 2 of 2): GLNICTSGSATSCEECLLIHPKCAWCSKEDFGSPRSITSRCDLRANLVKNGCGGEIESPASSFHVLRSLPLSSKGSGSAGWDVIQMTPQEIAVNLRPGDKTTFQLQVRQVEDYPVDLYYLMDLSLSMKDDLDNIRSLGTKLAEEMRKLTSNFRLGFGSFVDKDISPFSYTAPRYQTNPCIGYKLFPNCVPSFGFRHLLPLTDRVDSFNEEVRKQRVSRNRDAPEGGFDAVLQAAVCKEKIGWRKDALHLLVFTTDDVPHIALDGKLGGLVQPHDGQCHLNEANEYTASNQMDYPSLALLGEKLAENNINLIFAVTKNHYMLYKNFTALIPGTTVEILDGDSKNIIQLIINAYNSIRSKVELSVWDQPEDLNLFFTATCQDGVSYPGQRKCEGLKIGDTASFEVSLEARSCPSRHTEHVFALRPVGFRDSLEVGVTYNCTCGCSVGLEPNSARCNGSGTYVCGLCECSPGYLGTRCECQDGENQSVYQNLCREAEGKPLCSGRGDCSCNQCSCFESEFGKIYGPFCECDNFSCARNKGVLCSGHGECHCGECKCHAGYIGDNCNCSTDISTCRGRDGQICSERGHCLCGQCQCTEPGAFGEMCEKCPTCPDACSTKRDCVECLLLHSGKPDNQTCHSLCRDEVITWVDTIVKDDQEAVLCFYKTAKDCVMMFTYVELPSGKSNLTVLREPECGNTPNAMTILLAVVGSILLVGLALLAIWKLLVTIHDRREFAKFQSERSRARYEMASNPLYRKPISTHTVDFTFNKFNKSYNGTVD
# [2] = target: T2, human αVβ3 integrin, purified (human, UniProt P06756 31-1048; P05106 27-788); assay: saturation binding ELISA on αvβ3 coated plate, non-linear fit, n = 6
# T2 construct: mature; Detergent-extracted heterodimer purified from human placenta at Centocor, or bought from Chemicon; coated on plates or in solution; also called alphaVbeta3; aVb3
# T2 sequence (P06756 31-1048, form in doubt, chain 1 of 2): as the sequence (P06756 31-1048, form in doubt, chain 1 of 2) above
# T2 sequence (P05106 27-788, form in doubt, chain 2 of 2): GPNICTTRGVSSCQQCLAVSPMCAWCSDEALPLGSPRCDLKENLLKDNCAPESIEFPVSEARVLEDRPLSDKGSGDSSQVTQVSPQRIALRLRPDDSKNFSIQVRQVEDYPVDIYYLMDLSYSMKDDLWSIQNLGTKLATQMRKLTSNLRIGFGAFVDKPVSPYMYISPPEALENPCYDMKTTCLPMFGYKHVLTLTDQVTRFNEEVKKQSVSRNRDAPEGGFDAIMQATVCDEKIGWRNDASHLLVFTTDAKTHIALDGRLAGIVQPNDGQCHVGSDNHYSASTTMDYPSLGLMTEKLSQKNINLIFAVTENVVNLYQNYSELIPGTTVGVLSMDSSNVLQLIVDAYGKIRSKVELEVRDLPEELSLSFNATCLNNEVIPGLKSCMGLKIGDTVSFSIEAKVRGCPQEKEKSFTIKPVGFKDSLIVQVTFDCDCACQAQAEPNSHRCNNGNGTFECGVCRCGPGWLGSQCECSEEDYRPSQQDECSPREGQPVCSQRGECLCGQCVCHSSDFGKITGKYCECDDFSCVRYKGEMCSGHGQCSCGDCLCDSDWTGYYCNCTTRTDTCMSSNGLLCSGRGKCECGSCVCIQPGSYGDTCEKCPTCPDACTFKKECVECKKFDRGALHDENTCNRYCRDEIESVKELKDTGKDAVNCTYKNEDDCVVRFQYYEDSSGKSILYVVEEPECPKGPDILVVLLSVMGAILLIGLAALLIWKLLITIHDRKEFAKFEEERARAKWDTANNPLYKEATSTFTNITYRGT
# Description: (§1) αᵥβ₃ or αᵥβ₅ integrin was diluted to 1 μg/ml in Tris-buffered saline (TBS, 10 mM Tris, 100 mM NaCl, pH 7.5) containing 2 mM calcium chloride (TBS/Ca⁺⁺) and coated at 50 μl per well onto 96 well polystyrene Linbro plates (Flow/ICN) overnight at 4° C. Plates were washed with TBS/Ca⁺⁺ and blocked with 1% bovine serum albumin (BSA) in TBS/Ca⁺⁺ for 1 h at room temperature. Fifty microliters of diluted antibody was added in triplicate to coated wells and incubated for 2 h at 37° C. […] Plates were washed three times, and developed with o-phenylenediamine dihydrochloride substrate solution (OPD, Sigma) consisting of 0.1 M citric acid, 0.2M sodium phosphate, 0.01% H₂O₂ and 1 mg/ml OPD. Color development was stopped after 15 min at room temperature with 0.3 N H₂SO₄, and plates were read at OD₄₉₀ nm in the Molecular Dynamics plate reader.
# [3] = target: T3, αvβ5 integrin on HT-29 human colon carcinoma cells (human, UniProt P06756 31-1048; P18084 24-799); assay: 125-I antibody saturation binding to HT-29 cells, n = 5
# T3 construct: whole, on cells; also called HT-29 cells; HT29 cells
# T3 sequence (P06756 31-1048, chain 1 of 2): as the sequence (P06756 31-1048, form in doubt, chain 1 of 2) above
# T3 sequence (P18084 24-799, chain 2 of 2): as the sequence (P18084 24-799, form in doubt, chain 2 of 2) above
# Description: (§2) Cells were plated 2 days prior to experiment, and 1×10⁵ cells/well at the time of study. […] Nonspecific binding was determined using 100× cold mAb in media. Cells were washed 3× and counted for bound radioactivity. Each curve represents 4-5 separate studies, and each data point in an experiment was the mean of triplicate samples.
# [4] = target: T2, human αVβ3 integrin, purified; assay: EIA, purified antibody titrated on αVβ3 coated plates
# [5] = target: T1, human αVβ5 integrin, purified; assay: saturation binding ELISA on αvβ5 coated plate, non-linear fit, n = 6
# Description: as §1
# [6] = target: T4, integrin aIIbb3 from human placenta extract (human, UniProt P08514 32-1039; P05106 27-788); assay: CNTO 95 affinity column on human placenta extract, Western blot with anti-aIIb
# T4 construct: mature; only the aIIb subunit was probed; also called aIIbβ3; GPIIb/IIIa
# Description: (§3) Western blot. […] The filters were blocked with 5% nonfat dry milk in TBS containing 0.05% Tween 20 (wash buffer) at room temperature for 1 hour and then incubated with anti-integrin antibodies (anti-a5 (P-19) Santa Cruz, goat polyclonal IgG 1:500 dilution; anti-aIIb, Chemicon, mouse monoclonal IgG1, 1:1000 dilution; anti-αV (Q-20), Santa Cruz, goat polyclonal IgG, 1:500 dilution; anti-b1 (4B7R), Santa Cruz, mouse monoclonal IgG1, 1:500 dilution; anti-b1 (N-20), Santa Cruz, goat polyclonal IgG, 1:500 dilution; anti-β3 (H-96), Santa Cruz, rabbit polyclonal IgG, 1:500 dilution; anti-β5 (H-96), Santa Cruz, rabbit polyclonal IgG, 1:500 dilution; anti-β6 (H-110), Santa Cruz, rabbit polyclonal IgG, 1:250 dilution). After thorough washing, filters were incubated with appropriate peroxidase-conjugated secondary antibodies (1:20000 dilution). The antigen-antibody complexes were visualized using SuperSignal West Pico Chemiluminescent Substrate kit (Pierce).
# [7] = target: T5, integrin a5b1 from human placenta extract (human, UniProt P08648 42-1049; P05556 21-798); assay: CNTO 95 affinity column on human placenta extract, Western blot with anti-integrin a5
# T5 construct: mature; only the a5 subunit was probed; also called a5 containing heterodimers
# T5 sequence (P08648 42-1049, chain 1 of 2): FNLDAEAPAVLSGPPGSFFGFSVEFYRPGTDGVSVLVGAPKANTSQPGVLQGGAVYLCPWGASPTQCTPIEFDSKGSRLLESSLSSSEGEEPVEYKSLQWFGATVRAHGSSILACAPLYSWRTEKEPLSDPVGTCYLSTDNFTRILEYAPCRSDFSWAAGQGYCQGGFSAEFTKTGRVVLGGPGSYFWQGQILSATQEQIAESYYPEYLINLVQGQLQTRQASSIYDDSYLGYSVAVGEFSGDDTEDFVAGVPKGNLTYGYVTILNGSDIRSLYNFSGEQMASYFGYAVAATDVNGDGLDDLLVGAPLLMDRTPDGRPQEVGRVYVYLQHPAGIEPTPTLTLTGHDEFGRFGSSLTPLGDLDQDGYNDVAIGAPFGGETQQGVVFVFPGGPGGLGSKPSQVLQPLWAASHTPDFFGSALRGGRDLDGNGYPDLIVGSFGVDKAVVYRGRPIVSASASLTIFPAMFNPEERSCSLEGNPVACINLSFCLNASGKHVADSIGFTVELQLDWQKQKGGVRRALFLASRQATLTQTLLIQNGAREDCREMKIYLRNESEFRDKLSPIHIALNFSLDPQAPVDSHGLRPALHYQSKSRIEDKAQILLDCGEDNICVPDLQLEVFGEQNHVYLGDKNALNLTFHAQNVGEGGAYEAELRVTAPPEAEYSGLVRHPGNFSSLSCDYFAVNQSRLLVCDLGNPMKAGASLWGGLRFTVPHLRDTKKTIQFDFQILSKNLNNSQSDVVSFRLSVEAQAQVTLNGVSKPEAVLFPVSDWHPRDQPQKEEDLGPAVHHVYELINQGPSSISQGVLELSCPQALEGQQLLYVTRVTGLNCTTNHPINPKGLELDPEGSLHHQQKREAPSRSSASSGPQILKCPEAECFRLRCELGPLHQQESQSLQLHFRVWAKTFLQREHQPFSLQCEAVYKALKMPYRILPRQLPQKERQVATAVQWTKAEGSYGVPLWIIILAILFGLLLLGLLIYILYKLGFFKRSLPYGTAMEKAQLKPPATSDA
# T5 sequence (P05556 21-798, chain 2 of 2): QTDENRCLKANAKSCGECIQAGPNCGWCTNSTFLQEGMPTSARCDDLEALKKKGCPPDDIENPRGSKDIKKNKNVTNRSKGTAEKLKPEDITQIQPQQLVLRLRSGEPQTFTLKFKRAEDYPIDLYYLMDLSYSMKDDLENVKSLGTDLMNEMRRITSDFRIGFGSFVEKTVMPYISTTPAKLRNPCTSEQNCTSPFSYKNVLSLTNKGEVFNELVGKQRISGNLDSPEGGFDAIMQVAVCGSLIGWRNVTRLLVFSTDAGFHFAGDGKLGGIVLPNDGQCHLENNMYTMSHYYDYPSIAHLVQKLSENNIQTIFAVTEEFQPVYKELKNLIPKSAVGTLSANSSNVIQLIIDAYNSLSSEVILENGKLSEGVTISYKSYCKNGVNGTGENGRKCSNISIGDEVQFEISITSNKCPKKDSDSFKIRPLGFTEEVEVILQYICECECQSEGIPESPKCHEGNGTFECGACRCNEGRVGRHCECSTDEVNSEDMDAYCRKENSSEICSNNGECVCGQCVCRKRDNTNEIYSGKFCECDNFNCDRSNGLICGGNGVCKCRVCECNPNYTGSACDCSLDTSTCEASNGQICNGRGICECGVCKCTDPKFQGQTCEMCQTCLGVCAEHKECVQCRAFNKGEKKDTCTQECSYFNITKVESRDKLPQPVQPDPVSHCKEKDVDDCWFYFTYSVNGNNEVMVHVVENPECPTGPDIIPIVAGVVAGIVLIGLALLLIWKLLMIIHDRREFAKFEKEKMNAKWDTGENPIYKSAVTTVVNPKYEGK
# Description: as §3
# [8] = target: T3, αvβ5 integrin on HT-29 human colon …; assay: 125-I antibody saturation binding to HT-29 cells, rounded value
# Description: as §2
# [9] = target: T3, αvβ5 integrin on HT-29 human colon …; assay: 125-I antibody saturation binding to HT-29 cells
# Description: as §2
# [10] = target: T1, human αVβ5 integrin, purified; assay: saturation binding ELISA on αvβ5 coated plate, non-linear fit, six experiments
# Description: as §1
binder,measurement,setting,value
B1,fold higher affinity than for αvβ3 purified integrin,[1],~8 fold
same,Kd,[2],0.21 nM
same,Kd,[3],1.3 nM
same,EC50,[4],0.7 µg/mL
same,Kd,[5],0.25 nM
same,binding result,[6],no binding
same,binding result,[7],no binding
same,Kd,[8],1 nM
same,Kd,[9],0.13 nM
same,Kd,[10],0.025 nM

# — patent US20090191117A1 (published 2009)
